Columns and labels:
Conditions in all cases: one partner purified
[1] = target: T1, GluA2 in native GluA2-containing AMPARs from mouse brain (Mus musculus, C57BL/6, UniProt P23819); experiment: pull-down; immunoaffinity purification: 15F1-GFP incubated with digitonin-solubilized membrane supernatant (on ice, 20 min), 15F1-GFP-bound AMPARs held on Streptactin resin by the twin-Strep II tag, eluted with 8 mM d-desthiobiotin, then SEC (Superose 6) in TBS, 1 uM (R,R)-2b, 1 uM MPQX, 0.075% digitonin; read out by FSEC and silver-stained SDS-PAGE
T1 construct: AMPA receptor subunit GluA2, mouse, endogenous in brain; also called native mouse AMPARs; source: endogenous, mouse (C57BL/6) brain membranes, solubilized in 2% digitonin

[2] = target: T2, GluA2 in native GluA2-containing AMPARs from rat brain (Rattus norvegicus, Sprague Dawley, UniProt P19491); experiment: SEC; fluorescence-size exclusion chromatography (FSEC), GFP fluorescence; 15F1-GFP Fab added to membranes solubilized in 2% digitonin (w/v), equal masses of membranes from each mammal
T2 construct: AMPA receptor subunit GluA2, rat, endogenous in brain; also called native rat AMPARs; source: endogenous, rat (Sprague Dawley) brain membranes, solubilized in 2% digitonin

[3] = target: T3, GluA2 in native GluA2-containing AMPARs from pig brain (Sus scrofa (pig), endogenous brain, UniProt A0A287AEG6); experiment: as above
T3 construct: AMPA receptor subunit GluA2, pig, endogenous in brain; also called native pig AMPARs; source: endogenous, pig brain membranes, solubilized in 2% digitonin

T2 sequence (P19491 22-883): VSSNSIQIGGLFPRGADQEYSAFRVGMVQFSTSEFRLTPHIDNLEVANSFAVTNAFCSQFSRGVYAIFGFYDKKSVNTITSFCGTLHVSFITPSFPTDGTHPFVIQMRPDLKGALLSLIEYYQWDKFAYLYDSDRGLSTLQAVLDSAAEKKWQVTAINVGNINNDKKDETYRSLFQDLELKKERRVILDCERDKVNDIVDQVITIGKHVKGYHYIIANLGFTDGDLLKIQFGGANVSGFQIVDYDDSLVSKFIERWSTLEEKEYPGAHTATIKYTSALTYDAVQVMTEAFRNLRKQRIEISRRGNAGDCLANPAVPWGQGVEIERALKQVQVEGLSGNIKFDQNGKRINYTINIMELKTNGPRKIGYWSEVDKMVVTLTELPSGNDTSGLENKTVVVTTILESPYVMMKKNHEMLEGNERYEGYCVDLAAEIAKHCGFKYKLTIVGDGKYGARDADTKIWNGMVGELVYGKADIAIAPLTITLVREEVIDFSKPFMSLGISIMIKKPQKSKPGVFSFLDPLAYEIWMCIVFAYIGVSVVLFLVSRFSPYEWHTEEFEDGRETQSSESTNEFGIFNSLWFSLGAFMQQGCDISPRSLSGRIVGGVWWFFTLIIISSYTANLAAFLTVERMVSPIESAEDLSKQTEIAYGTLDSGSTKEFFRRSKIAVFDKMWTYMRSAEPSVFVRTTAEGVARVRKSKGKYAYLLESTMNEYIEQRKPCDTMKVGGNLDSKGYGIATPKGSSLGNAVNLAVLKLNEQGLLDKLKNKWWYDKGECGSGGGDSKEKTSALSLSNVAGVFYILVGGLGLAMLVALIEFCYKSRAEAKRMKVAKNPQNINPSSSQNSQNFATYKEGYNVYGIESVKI
T1 sequence (P23819 25-883): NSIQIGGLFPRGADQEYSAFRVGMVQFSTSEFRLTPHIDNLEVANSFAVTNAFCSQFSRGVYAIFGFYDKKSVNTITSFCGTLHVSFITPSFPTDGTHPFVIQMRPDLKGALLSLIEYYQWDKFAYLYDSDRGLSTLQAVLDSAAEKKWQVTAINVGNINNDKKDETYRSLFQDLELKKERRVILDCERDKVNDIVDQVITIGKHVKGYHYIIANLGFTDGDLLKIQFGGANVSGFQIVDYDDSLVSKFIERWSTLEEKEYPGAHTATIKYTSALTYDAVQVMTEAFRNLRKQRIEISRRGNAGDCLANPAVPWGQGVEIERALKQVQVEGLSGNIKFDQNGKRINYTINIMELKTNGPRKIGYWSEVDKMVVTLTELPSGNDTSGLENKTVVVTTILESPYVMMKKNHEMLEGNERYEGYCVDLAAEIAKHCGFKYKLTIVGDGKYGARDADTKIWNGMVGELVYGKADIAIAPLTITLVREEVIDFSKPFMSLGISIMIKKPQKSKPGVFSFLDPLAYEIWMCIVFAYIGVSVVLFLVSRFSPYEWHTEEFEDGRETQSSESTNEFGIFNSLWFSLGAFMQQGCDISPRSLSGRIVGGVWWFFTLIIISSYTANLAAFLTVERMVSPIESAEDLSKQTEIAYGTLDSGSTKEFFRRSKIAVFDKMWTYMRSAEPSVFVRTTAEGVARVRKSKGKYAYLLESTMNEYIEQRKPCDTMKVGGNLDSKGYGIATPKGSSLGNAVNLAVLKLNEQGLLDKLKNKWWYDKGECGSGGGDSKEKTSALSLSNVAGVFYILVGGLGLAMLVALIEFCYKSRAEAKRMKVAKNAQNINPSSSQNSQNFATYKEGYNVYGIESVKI

binding result [1]: binds
binding result [2]: binds
binding result [3]: binds
B1: 15F1-GFP Fab (Fab, V domains shown)
VH: QAQLKESGPGLVAPSQSLSITCTVSGFSLTNYGVHWVRQPPGKGLEWLGVIWAGGSTNYNSALMSRVSISKDNSKSQVFLKMNSLQTDDTVMYYCAREDYDYDWHFDVWGAGTTVTVSS
VL: EIQMTQTTSSLSASLGDRVTISCRASQDISNYLSWYQQKPDGTVKLLIYYTSRLHSGVPSRFSGSGSGIDYSLTINNLEQEDFATYFCQQGNTLPLTFGAGTKLELK
notes: Fab domain of the heavy chain of the 15F1 monoclonal antibody; Fab domain of the light chain of the 15F1 monoclonal antibody; On the heavy chain eGFP is followed by the twin-Strep II tag; also called 15F1 Fab; anti-GluA2 antibody fragment; not shown: eGFP, C-terminal, kept; twin-Strep II, C-terminal, kept

From publication PMC10022779, “Purification and biochemical analysis of native AMPA receptors from three different mammalian species” (PLOS ONE, 2023)
